Experiment [1] concerns the target N15 TCRαβ heterodimer, WT TCRα (mouse) (UniProt P01849).
The target in experiment [2] is N15 TCRαβ heterodimer, TCRα R251L (mouse).

The values below come from paper PMC6249037.

UniProt P01849, sequence (P01849 whole entry, looked up, one chain of several): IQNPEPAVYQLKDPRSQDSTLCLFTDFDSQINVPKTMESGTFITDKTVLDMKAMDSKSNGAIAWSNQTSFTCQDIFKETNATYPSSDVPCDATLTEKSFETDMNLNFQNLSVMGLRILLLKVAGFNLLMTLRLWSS

In experiment [1], “VSV8K^b (vesicular stomatitis virus nucleoprotein octapeptide VSV8 bound to [change]^b) (peptide-MHC)” registered a force maximum for catch-bond formation (CD3δ-SxxS cell line) of 15 pN and a maximal bond lifetime (catch bond; CD3δ-SxxS cell line) of 8 s. In addition, the catch bond force maximum in experiment [2] was 10 pN.
